B1: CD133 (prominin-1): N548Q (protein)
parent chain: MALVLGSLLLLGLCGNSFSGGQPSSTDAPKAWNYELPATNYETQDSHKAGPIGILFELVHIFLYVVQPRDFPEDTLRKFLQKAYESKIDYDKPETVILGLKIVYYEAGIILCCVLGLLFIILMPLVGYFFCMCRCCNKCGGEMHQRQKENGPFLRKCFAISLLVICIIISIGIFYGFVANHQVRTRIKRSRKLADSNFKDLRTLLNETPEQIKYILAQYNTTKDKAFTDLNSINSVLGGGILDRLRPNIIPVLDEIKSMATAIKETKEALENMNSTLKSLHQQSTQLSSSLTSVKTSLRSSLNDPLCLVHPSSETCNSIRLSLSQLNSNPELRQLPPVDAELDNVNNVLRTDLDGLVQQGYQSLNDIPDRVQRQTTTVVAGIKRVLNSIGSDIDNVTQRLPIQDILSAFSVYVNNTESYIHRNLPTLEEYDSYWWLGGLVICSLLTLIVIFYYLGLLCGVCGYDRHATPTTRGCVSNTGGVFLMVGVGLSFLFCWILMIIVVLTFVFGANVEKLICEPYTSKELFRVLDTPYLLNEDWEYYLSGKLFNKSKMKLTFEQVYSDCKKNRGTYGTLHLQNSFNISEHLNINEHTGSISSELESLKVNLNIFLLGAAGRKNLQDFAACGIDRMNYDSYLAQTGKSPAGVNLLSFAYDLEAKANSLPPGNLRNSLKRDAQTIKTIHQQRVLPIEQSLSTLYQSVKILQRTGNGLLERVTRILASLDFAQNFITNNTSSVIIEETKKYGRTIIGYFEHYLQWIEFSISEKVASCKPVATALDTAVDVFLCSYIIDPLNLFWFGIGKATVFLLPALIFAVKLAKYYRRMDSEDVYDDVETIPMKNMENGNNGYHKDHVYGIHNPVMTSPSQH
B2: CD133 (prominin-1): N206Q (protein)
parent chain: B1 parent chain
B3: CD133 (prominin-1): N729Q (protein)
parent chain: B1 parent chain
B4: CD133 (prominin-1): N414Q (protein)
parent chain: B1 parent chain
B5: CD133 (prominin-1): N274Q (protein)
parent chain: B1 parent chain
B6: CD133 (prominin-1): N220Q (protein)
parent chain: B1 parent chain
B7: CD133 (prominin-1): N730Q (protein)
parent chain: B1 parent chain
B8: CD133 (prominin-1): N395Q (protein)
parent chain: B1 parent chain
B9: CD133 (prominin-1): N580Q (protein)
parent chain: B1 parent chain

Experiment: FLAG IP, PY828 blot, HEK293T with Src
Conditions: glycan lost; control: wild-type CD133

Protein | other: Y828 phosphorylation
B1 | no change

Experiment: surface flow cytometry, HEK293T and HepG2
Conditions: glycan lost; control: wild-type CD133

Protein | localisation_or_trafficking
B2 | no change
B3 | no change
B4 | no change
B1 | no change
B5 | no change
B6 | no change
B7 | no change
B8 | no change
B9 | no change

Experiment: anti-CD133 western blot, HEK293T lysates
Conditions: glycan lost; control: wild-type CD133

Protein | expression_or_secretion
B2 | no change
B3 | no change
B4 | no change
B1 | no change
B5 | no change
B6 | no change
B7 | no change
B8 | no change
B9 | no change

Experiment: immunofluorescence with ER dye, HEK293T
Conditions: glycan lost; control: wild-type CD133

Protein | localisation_or_trafficking
B2 | no change
B3 | no change
B4 | no change
B1 | no change
B5 | no change
B6 | no change
B7 | no change
B8 | no change
B9 | no change

Reference: paper PMC4653032
